Source: the DeepSol protein solubility set

Test: soluble on expression in E. coli; label from the status in PepcDB or PDB records

| Sequence | soluble on expression in E. coli |
| --- | --- |
| IGKVNYNIGFNLSDNRAKVISYPNASKALWDSNGNTLYYNGMTIGEIWGYETEGIAKTDAQMTEWLASNDQSKIGSVWGAGDIMYRDLNGDGIVDKGNSTATDHGDLKKIGNSTPRLRFGLSLGADWKGFDIQMFFQGVMKRDLWLSGPMFWGADGGEWQSVGFDEHLDYFRPENTTSIFGANLNSYYPKAYLGDKGNKNKQTQTRYLQNGAYMRMKNLQIGYTFPKAWMNKAKIEKLRIYVSGENLFTISGIADMFDPEATAGNGFSNGKTYPLSKTISFGLNITL | not soluble |
| SLYATPIGYADTRFETAADAPRQGVETPYAANVQVYESFRGGLVGLEPDDRVVVVWWADDADRDVLAVRDGDRGVFTTRSPARPNPVCITPCELLAVDAADGTLAIRGWIWRTARRSWI | soluble |
| MTTKFVVGYDGSAASRRALDFAMERAKAGGASIIVAHVLEWSPYSFLTPTEIEERHKRRAEEMARAETAILAPLKAELAGSGVEIETAIRYGQVADTLCDIATKSGAAQIFIARQGESGLAARVFGSVAGTLAQYAPVPCTIVP | not soluble |
| MSLKTWFITGTSSGFGKELATIVARQSDTQLIAAARHTDDLAYLDVFDATRIEKVSIDVTNESQIKTGVAQAIQRFGTIDVLVNNAGLGYFSTIEESDMAKVRYMFEVNVMGLANVTRTVLPTMRAHHAGIIINLSSALALTTLPTMGFYSATKYAVEGYSDTLRQEVKDLGIQIMTVEPSGARTQWSGRSSQKMVPTIADYAAFSDAITTVSDSVTQAPGNPHRIAQVMFDQANLAEVPAHLPLGEFAYQGGLANLQSIVSEIKSREDLSLSTDEGHHHHHH | not soluble |
| MTPPRVLSIAGSDSGGGAGIQADMRTMALLGVHACVAVTAVTVQNTLGVKDIHEVPNDVVAGQIEAVVTDIGVQAAKTGMLASSRIVATVAATWRRLELSVPLVVDPVCASMHGDPLLAPSALDSLRGQLFPLATLLTPNLDEARLLVDIEVVDAESQRAAAKALHALGPQWVLVKGGHLRSSDGSCDLLYDGVSCYQFDAQRLPTGDDHGGGDTLATAIAAALAHGFTVPDAVDFGKRWVTECLRAAYPLGRGHGPVSPLFRLS | not soluble |
| MLRVLIVDDEMLARDELAYLLKRTNDEMEINEAENIESAFDQMMDQKPDLLFLDVDLSGENGFDIAKRLKKMKHPPAIVFATAYDQYALKAFEVDALDYLTKPFDEERIQQTLKKYKKVNRDIVETEQNSHAGQHKLALSVGESIVIVDTKDIIYAGTEDGHVNVKTFDHSYTVSDTLVVIEKKLPDSDFIRVHRSFVVNTEYIKEIQPWFNSTYNLIMKDGSKIPVSRTYAKELKKLLHI | not soluble |
| MVRVYIGRLPNRASDRDVEHFFRGYGKLSDVIMKNGFGFVDFQDQRDADDAVHDLNGKELCGERVILEFPRRKVGYNEERSGSGFRGREPTFRKGGERQFSNRYSRPCSTRFRLVIDNLSTRYSWQDIKDHIRKLGIEPTYSEAHKRNVNQAIVCFTSHDDLRDAMNKLQGEDLNGRKLKCTDETRDRSRSRSPRRRSRSRSPTRSRSPPARRRSPGSDRSDRKSRSASPKKRSDKRARSESKSRSRSGGRRSRSNSPPNRSPSPKKRRDNSSPRSGSASP | not soluble |
| ASSSYYEQYHSLNEIYSWIEVMTERYPDMVEKIHIGSSYEKYPLYVLKVSKKEQRAKNAMWIDCGIHAREWISPAFCLWFVGSVTYYYGKEKMHTNLLKHMDFYIMPVVNVDGYDYTWKKDRMWRKNRSLHEKNACVGTDLNRNFASKHWCGEGASSSSCSEIYCGTYPESEPEVKAVADFLRRNIKHIKAYISMHSYSQKIVFPYSYSRSRSKDHEELSLVAREAVFAMENIHRNIRYTHGSGSESLYLAPGGSDDWIYDLGIKYSFTFELRDKGKYGFLLPESYIRPTCSEALVAVAKIASHVVKNV | soluble |
| GMKGISHRIAIPLILEVGNNKIYNIGQIIKKGNFKRVSLYFGEGIYELFGETIEKSIKSSNIEIEAVETVKNIDFDEIGTNAFKIPAEVDALIGIGGGKAIDAVKYMAFLRKLPFISVPTSTSNDGFSSPVASLLINGKRTSVPAKTPDGIVVDIDVIKGSPEKFIYSGIGDLVSNITALYDWKFEEENHKSIIDDFAVMISKKSVNSFVRTDFKSIKDEVFLKELVDSLTMNGIAMEIAGNSSPASGAEHLISHALDKFLPNPQLHGIQVGVATYIMSKVHKHREERIKKILSDTGFFNYVKGLNMKKSDFKRAISEAHLIKPARYTYLHVEKNCETAKEIVDTDEILRNILV | soluble |
| MQYFDVARILTTHGLHGEVKVNVITDFPEDRFAEGMQLELKDDIDRVLTIKKSRPFKQFWLLQFDEITDIDEAEKLRGKILVISEKDRGELPDGVYYYKDIFDCGVIDNETGKRLGKITDIQSPGANDIWLVHEDNGKEYWIPNIADVVKKIDIADKKVYVELMEGLRDEDLEHHHHHH | soluble |
| MNFPVSDLTSYQELIEQQGLKSQTNIISLDKIIVDIILSEKTGFSRSQQVWCLIRQRIVDGCASVVDIDYLDMRLMPQLNRSIAENSIYDYLENQLHLSISHAFKEITIDNTSEQDKILIDIGKDHHVVCIRSKVYLNNGNQLQFTESRHKLEKFKFVYYAKRHH | not soluble |
| MAGTISDYGGRQQIWNLGNNIIDTKKLVDLELQALEMKKSPYTTQKQTLTNEKNVYASMKKEFGNLVQVFKDLYAFKGDEKKTTLSKDGFMKAQADAAAIPGTYTITVERVAERHQITTAPLTPSKTPESMEQKFSLDLKLGVDDVFQINGKEVKISKDMTYKDLVNKINNGNYGASVYTLGDQLFFTSTTAGEAGELKLTDGANGFLQNIGLVTSAKNPDGTNVVAHQVTGAINAEYTINGIKGTSKTNKIDTIPGLTINLEKETTEPIKLTIEDSDIKNSIDLIKKMKDEYNKAVKSLDLFAGENGVMQGSNVSFAINNAMTGIFKFSQDDKYLFSFGIQIDKKGNMTLDEEKLKTAFKENPESTKQFFFGLNGLGHDTEKKLDGIFGDEGIIGKRSKSIEKQVTDLERKIQDIDTVNKEKQKTIIDKYAKLESQLALLDSQLKTIQAMTKTKSDD | not soluble |
| NALHVINMVGTRHATPYGQDICTRFLADLSVLCPNALIVSGLAYGIDIHAHRAALQNHFKTIGVLAHGLDRIYPAEHRKTAVSMLEQGGLLTEFTSGTNPDRQNFVKRNRIVAGMSDATVVIESAAKGGALITAELAESYHRDCFAFPGRCNDEYSIGCNNLIRKNQAVLITSAEDLVKAMGWESSPKTEKT | not soluble |
| MSLKARRGLSASDLINLNADRLQCLLSGHPKFVFNKGRRGWGKEALERYAPEYANTFRLHWLAVKREHMIWRCDNEMDIHQLLTAAMDPQEFARFSQVWQENGLDHNWLPLPVHPWQWQEKIATDFIADFGEGRMVSLGEFGDQWLAQQSLRTLTNASRRGGLDIKLPLTIYNTSCYRGIPGRYIAAGPLASRWLQQVFATDATLVQSGAVILGEPAAGYVSHEGYAALARAPYRYQEMLGVIWRENPCRWLKPDESPFLMATLMEWDENNQPLAGAYIDRSGLDAETWLTQLFRVVVVPLYHLLCRYGVALIAHGQNITLAMKEGVPQRVLLKDFQGDMRLVKEEFPEMDSLPQEVRDVTSRLSADYLIHDLQTGHFVTVLRFISPLMVRLGVPERRFYQLLAAVLSDYMKKHPQMSERFALFSLFRPQIIRVVLNPVKLTWPDLDGGSRMLPNYLEDLQNPLWLVTQEYESEGHHHHHH | soluble |
| MGSDKIHHHHHHMNKDIPVLIFSDKLNINGDYPIIKIINEQSLPYILKHEIGGLKDWFKSRVIPTNRNHLEKLIESLQFEKKPTALDYLKLNNGFSLNDSYWIKPLDISSMYPKDLCWDKYNLYDNKFEEALGLVTFFGNNTSLGGTVNTPKVSSPELTTQGVMNKAWRRTDNKLLLYKRGNIGAANLDKEHFSESIASEIGKILGLNCIPYWTDKWHNQNCSVCEIFTNKDKGYLPFRYFLEAIEPNRKKWGFANVIEWIPKEFKQDFLDMIVFDYIIENRDRHLGNFGFIIDNNTQELLSFAPLFDQGYSLMANALEEDFNKDLKEYSESHPSFVLENKDLAKYVIERNKQRYKGFTKTLRLKIDDINWFNCPNWYKEGIKKLIFTRCEVINSI | not soluble |
| DVQLVESGGGLVQPGGSRKLSCAASGFTFSSFGMHWVRQAPEKGLEWVAYISSGSSTLHYADTVKGRFTISRDNPKNTLFLQMTSLRSEDTGMYYCARWGNYPYYAMDYWGQGTSVTVSSAKTTPPSVYPLAPGSAAQTNSMVTLGCLVKGYFPEPVTVTWNSGSLSSGVHTFPAVLQSDLYTLSSSVTVPSSPRPSETVTCNVAHPASSTKVDKKIVPRDC | soluble |
| MVRVRPSCQVAQSDCGLACVHMLIQSFGISASLRKMRVTYAPGRDGLSLRALTQILSDFGLNSKVVKCSYSNLSRVPLPAIIAWEPAHYVVLEKRLGDSWRIVDPSSGRRWCSKKEIEANFRSFCVTGARGNTKVSEGQVSDDPSWKSLAVLLAGK | not soluble |
| MTHHHHHHAMGPAAGQAYDAGNLDVASSPVKPTLSITKKTLTAAEAPNAKVTMELSVEGAADKYAATGLHIQFDPKLKLIPDEDGALATAGRAARLLELKKAEADTDNSFFTATGSSTNNGKDGVLWSFVLQVPADAQPGDKYDVQVAYQSRTTNEDLFTNVKKDEEGLLMQAWTFTQGIEQGYIQVESTTSLE | soluble |
| MAEAAQAPQQQFAIQRIYLKDVSFEAPSSPVMFQKEWNPDVKLDLDTQSRELGQGVYEVVLRLTVTVKNAEETAFLCEVQQAGIFSAEQMEAGQLAHCLGAFCPNILFPYARETISSLVVKGTFPQLNLAPVNFDALFMNYLQQQAQEGATANA | not soluble |
| LSIPEDYQARLQPNRVEGSYPLVRMEFTGATVDAPLMSQISRKYNIDVSILSSDLDYAGGVKFGMMVAELFGNEQDDSAAIEYLREHNVKVEVLGYVL | soluble |
| MTNRYVVIFTVGPVQSFIASARKTEDFWSGSYILSHLVREAIKRFYQFDANCEMIYPLVTEKELRSPSQRDVHIASIPNRLTVIMEGTEEEVCGWLREAEQDVCNVFLDFCFQAVRRVFPHLTDHEQELLERMVEQQVRSFLEIYWVAEPYEPSMSFREVRERAERRLGALKNEKHYIPVSQQGLVCSVCKEREALRLEEIGEFDHYGEIKKKTMSLWQRRAVKFQGTGGDEEDDRRAGRIKDNEFLCGICLGKRAARDYFADLFGTSFPSFPSVLDIGQGDYYAVLLMDGDDMGKWFSGERKDEYSRTSQKLARFAKETVPWIVQERCKGKLVYAGGDDVLAFVPVETALKAAEMLRLAFADERQGLGSGATASFGVVIAHKKAPLQHVLNAARALEQKAKRYYNDKTAQRKDALALAVHTRSGEISEAVLPWIVGEKMVSKLLEEWLGLLKTSLSPNFIFHFASAFAPLLHEKDCPKWENRDMLATELRRLLRRSVKEGSCLDAQDIARYTSTLLVLHEAVRSSYDFLHLLKMLTFFKRSKGRG | not soluble |
| MMNSIKFIFLGDVYGKAGRNIIKNNLAQLKSKYQADLVIVNAENTTHGKGLSLKHYEFLKEAGVNYITMGNHTWFQKLDLAVVINKKDLVRPLNLDTSFAFHNLGQGSLVFEFNKAKIRITNLLGTSVPLPFKTTNPFKVLKELILKRDCDLHIVDFHAETTSEKNAFCMAFDGYVTTIFGTHTHVPSADLRITPKGSAYITDVGMCGPGFGSVIGANPEQSIRLFCAGSREHFEVSKCGAQLNGVFFEVDVNTKKVIKTEAIRIVEDDPRYLKQDYFNLI | soluble |
